Measured values published in patent US20200031919A1 (SUZHOU KANOVA BIOPHARMACEUTICAL, published 2020).
Substitutions are numbered along the chain they refer to. Read-outs that look alike come from different tables or passages of the source. Blank lines part the entries; values can stand above or below the binder they belong to.

Experiments:
human IL-17A [1] = target: T1, human IL-17A (human, UniProt Q16552 24-155); assay: cell-based or functional assay
T1 sequence (looked up): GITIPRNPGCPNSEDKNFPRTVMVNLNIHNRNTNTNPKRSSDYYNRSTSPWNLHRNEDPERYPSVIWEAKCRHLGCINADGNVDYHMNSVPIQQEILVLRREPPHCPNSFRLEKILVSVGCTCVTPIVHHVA

human IL-17F [2] = target: T2, human IL-17F (human, UniProt Q96PD4 31-163); assay: cell-based or functional assay
T2 sequence (looked up): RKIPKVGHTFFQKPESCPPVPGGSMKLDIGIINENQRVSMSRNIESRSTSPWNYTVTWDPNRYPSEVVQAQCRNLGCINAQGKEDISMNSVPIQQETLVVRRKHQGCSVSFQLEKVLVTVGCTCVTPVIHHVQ

IL-17A/F heterodimer [3] = target: T3, IL-17A/F heterodimer (UniProt Q16552 24-155; Q96PD4 31-163, limits assumed); assay: cell-based or functional assay
T3 sequence (looked up) 1: T1 sequence (looked up)
T3 sequence (looked up) 2: T2 sequence (looked up)

human IL-17D = target: T4, human IL-17D (human, UniProt Q8TAD2 18-202, limits assumed); assay: ELISA, cytokine coated at 2 µg/ml
T4 construct: Commercial recombinant protein
T4 sequence (looked up): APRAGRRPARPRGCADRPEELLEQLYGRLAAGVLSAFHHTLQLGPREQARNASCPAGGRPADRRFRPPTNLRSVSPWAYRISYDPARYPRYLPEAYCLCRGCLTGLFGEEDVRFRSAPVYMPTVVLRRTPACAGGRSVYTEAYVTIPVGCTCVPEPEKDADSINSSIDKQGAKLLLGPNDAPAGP
Description: (§1) MaxiSorp 96-well plates (NUNC # 449824, www.thermofisher.com) were coated with 2 μg/ml human IL-17A (Cell Signaling #89285F, www.cellsignal.com), human IL-17F (Cell Signaling #8906LC, www.cellsignal.com), human IL-17B (Peprotech #200-28, www.peprotech.com), human IL-17C (R&D systems #1234-IL-025/CF, www.rndsystems.com), human IL-17D ((Peprotech #200-27, www.peprotech.com), human IL-17E (R&D systems #1258-IL-025/CF, www.rndsystems.com) in 1× PBS (50 μl/well) respectively. Plates were incubated at 4° C. overnight. Coating solution was removed and plates were washed once with 200 μl/well PBST (1× PBS with 0.05% tween-20). Then 200 μl/well blocking buffer (1× PBS with 0.05% tween-20, 3% BSA) was added and incubated at room temperature for 1 hour. Blocking buffer was removed and plates were washed three times with 200 μl/well PBST (1× PBS with 0.05% tween-20). The anti-IL17A/F antibody, hIgG VH1-1/VL5, was diluted to […], 0.000102, 0.000034 μg/ml by 1× PBS and added to the plates (50 μl/well). Plates were incubated at room temperature for 2 hours. Antibodies in the wells were removed and plates were washed three times with 200 μl/well PBST (1× PBS with 0.05% tween-20). Goat anti-human IgG(H&L)—HRP secondary antibody (Jackson Immuno Research #109-035-088, www.jacksonimmuno.com) was diluted 1:5000 in 1× PBS and added to each well (50 μl/well). Plates were incubated at room temperature for 1 hour. Secondary antibody was removed and plates were washed seven times with 200 μl/well PBST (1× PBS with 0.05% tween-20). 50 μl/well TMB (eBioscience # 85-00-4201-56, www.ebioscience.com) was added and plates were incubated at room temperature for several minutes. Then 50 μl/well 2N H₂SO₄ was added to stop the reaction. Plates were read at 450 nm. […] So, the hIgG VH1-1/VL5 antibody has binding specificity to human IL-17A and 17F and has no cross-reactivity to other IL-17 family members.

human IL-17E = target: T5, human IL-17E (human, UniProt Q9H293 33-177); assay: ELISA, cytokine coated at 2 µg/ml
T5 construct: Commercial recombinant protein; also called IL-25
T5 sequence (looked up): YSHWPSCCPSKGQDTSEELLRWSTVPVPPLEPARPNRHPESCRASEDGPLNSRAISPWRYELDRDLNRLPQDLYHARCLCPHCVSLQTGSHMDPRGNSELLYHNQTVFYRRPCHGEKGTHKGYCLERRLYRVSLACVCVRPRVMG
Description: as §1

human IL-17B = target: T6, human IL-17B (human, UniProt Q9UHF5 21-180); assay: ELISA, cytokine coated at 2 µg/ml
T6 construct: Commercial recombinant protein
T6 sequence (looked up): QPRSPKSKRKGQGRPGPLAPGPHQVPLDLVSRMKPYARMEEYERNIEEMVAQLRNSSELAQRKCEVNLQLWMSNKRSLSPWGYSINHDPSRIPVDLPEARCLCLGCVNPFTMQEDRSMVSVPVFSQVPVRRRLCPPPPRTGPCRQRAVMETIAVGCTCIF
Description: as §1

human IL-17C = target: T7, human IL-17C (human, UniProt Q9P0M4 19-197); assay: ELISA, cytokine coated at 2 µg/ml
T7 construct: Commercial recombinant protein
T7 sequence (looked up): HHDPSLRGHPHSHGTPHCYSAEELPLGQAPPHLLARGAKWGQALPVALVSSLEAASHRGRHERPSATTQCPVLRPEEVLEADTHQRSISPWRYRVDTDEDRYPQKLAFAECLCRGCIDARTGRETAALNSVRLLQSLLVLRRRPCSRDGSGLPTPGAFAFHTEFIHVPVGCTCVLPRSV
Description: as §1

human IL-17A [4] = target: T1, human IL-17A; assay: ELISA, human IL-17A coated at 2 µg/ml
Description: (§2) MaxiSorp 96-well plates (NUNC # 449824, www.thermofisher.com) were coated with 2 μg/ml human IL-17A (Cell Signaling #89285F, www.cellsignal.com), human IL-17F (Cell Signaling #8906LC, www.cellsignal.com), human IL-17B (Peprotech #200-28, www.peprotech.com), human IL-17C (R&D systems #1234-IL-025/CF, www.rndsystems.com), human IL-17D ((Peprotech #200-27, www.peprotech.com), human IL-17E (R&D systems #1258-IL-025/CF, www.rndsystems.com) in 1× PBS (50 μl/well) respectively. Plates were incubated at 4° C. overnight. Coating solution was removed and plates were washed once with 200 μl/well PBST (1× PBS with 0.05% tween-20). Then 200 μl/well blocking buffer (1× PBS with 0.05% tween-20, 3% BSA) was added and incubated at room temperature for 1 hour. Blocking buffer was removed and plates were washed three times with 200 μl/well PBST (1× PBS with 0.05% tween-20). The anti-IL17A/F antibody, hIgG VH1-1/VL5, was diluted to 10, 3.33, 1.11, 0.37, 0.123, 0.041, 0.0137, 0.0046, 0.0015, 0.00031, 0.000102, 0.000034 μg/ml by 1× PBS and added to the plates (50 μl/well). Plates were incubated at room temperature for 2 hours. Antibodies in the wells were removed and plates were washed three times with 200 μl/well PBST (1× PBS with 0.05% tween-20). […] Plates were read at 450 nm. […]

human IL-17F [5] = target: T2, human IL-17F; assay: ELISA, human IL-17F coated at 2 µg/ml
Description: as §2

human IL-17A [6] = target: T1, human IL-17A; assay: ELISA, human IL-17A coated at 2 µg/ml; remark: listed apart in the source
Description: as §2

human IL-17F [7] = target: T2, human IL-17F; assay: ELISA, human IL-17F coated at 2 µg/ml; remark: listed apart in the source
Description: as §2

cynomolgus IL-17A = target: T8, cynomolgus IL-17A (cynomolgus, UniProt A0A2K5TTB0 24-155); assay: ELISA, cynomolgus IL-17A coated at 2 µg/ml
T8 sequence: T1 sequence (looked up) with T3A, P8S, N34S, I77V, N78K, P104R
Description: (§3) Human IgG1 (hIgG1) was used as a control antibody. EC50 values were calculated by GraphPad Prism.
(§4) The binding of anti-IL-17A/F antibody to cynomolgus IL-17A and IL-17F was determined by ELISA. Assay was performed in the same method of Example 7, except that cynomolgus IL-17A (Gene ID: XM 005552759.2, in-house production according to standard molecular biology method, Carson S, Molecular Biology Techniques, 2012) and IL-17F (Gene ID: XM_005552757.2, in-house production according to standard molecular biology method, Carson S, Molecular Biology Techniques, 2012) were used to replace human IL-17A and F, respectively.

cynomolgus IL-17F = target: T9, cynomolgus IL-17F (cynomolgus, UniProt G7P4V0 31-163); assay: ELISA, cynomolgus IL-17F coated at 2 µg/ml
T9 construct: also called cynomolgus 17F
T9 sequence: T2 sequence (looked up) with G22E, I29T, R73K, N74H, V100L, I129V
Description: as §3, §4

human IL-17A [8] = target: T1, human IL-17A; assay: SPR (Biacore T200), antibody captured by anti-human Fc, IL-17 as analyte
Description: Anti-human Fc gamma specific antibody (Jackson Immuno Research, Lot no. 124448, Code. 109-008-098) was immobilized onto the sensor chip using amine coupling method. Four antibodies secreted to the culture medium plus the parental antibody were injected and captured by anti-human Fc antibody via Fc (capture phase) individually. After equilibration, IL-17 was injected for 300 seconds (association phase) followed by the injection of running buffer for 1200s (dissociation phase). Responses of reference flow cell (flow cell 1) were subtracted from those of humanized antibodies flow cells during each cycle. The surface was regenerated before the injection of another humanized antibody. The process was repeated until all antibodies are analyzed. The off-rates of humanized antibodies were obtained from fitting the experimental data locally to 1:1 interaction model using the Biacore T200 evaluation software. The antibodies were ranked by their dissociation rate constants (off-rates, Kd). The binders that interact with IL-17 with similar affinity to parental antibody were selected.

human IL-17A [9] = target: T1, human IL-17A; assay: blocking ELISA: 0.5 ug/ml hIL-17A coated, antibody titrated, then 10 ug/ml hIL17RA-mIgG2aFc (blocked ligand partner); OD450 falls from about 1.3 to a lower plateau of about 0.67
Description: (§5) The effect of the anti-IL17A/F antibody (produced in Example 2) on the binding of IL-17A, IL-17F or IL17A/F to the IL-17 receptor was tested by ELISA. IL-17A, IL-17F or IL-17A/F was coated in 96 well plate with 50 μl/well protein solution (protein concentration was […]) at 4° C. overnight. The wells were blocked with 1% BSA in PBST (tween 0.05%) by 200 μl/well at room temperature for 1 hour. The wells were washed 3 times with PBST. The anti-IL17A/F antibody and isotype control antibody human IgG1 (Biolegend cat# 403102) were diluted by PBS from 30 μg/ml down to 0.0005 μg/ml ([…]). The antibodies were added into the corresponding wells (50 μl/well) and incubated at room temperature for 4 hours. The wells were washed 3 times with PBST. hIL17RA-mIgG2aFc (10 μg/ml, in-house production according to standard molecular biology technology, Carson S, Molecular Biology Techniques, 2012) were added into each well (50 μl/well) and incubated at room temperature for 1 hour. The wells were washed 3 times with PBST. Goat anti-human IgG-HRP (1:5000 in PBS, EASYBIO Cat# BE0102) were added into each well (50 μl/well) and incubated at room temperature for 30 min. The wells were washed 6 times with PBST. […] The plate was read at 450 nm and 570 nm.

human IL-17F [10] = target: T2, human IL-17F; assay: blocking ELISA: 0.5 ug/ml hIL-17F coated, antibody titrated, then 10 ug/ml hIL17RA-mIgG2aFc (blocked ligand partner); OD450 falls from about 1.35 to a lower plateau of about 0.87
Description: as §5

IL-17A/F heterodimer [11] = target: T3, IL-17A/F heterodimer; assay: blocking ELISA: 0.5 ug/ml hIL-17A/F heterodimer coated, antibody titrated, then 10 ug/ml hIL17RA-mIgG2aFc (blocked ligand partner); OD450 falls from about 1.9 to a lower plateau of about 0.6
Description: as §5

IC50 of inhibition of IL-17A-induced IL-6 production in HFF-1 cells (human IL-17A [1]): 1.73 nM
IC50 of inhibition of IL-17F-induced IL-6 production in HFF-1 cells (human IL-17F [2]): 1.77 nM
IC50 of inhibition of IL-17A/F heterodimer-induced IL-6 production in HFF-1 cells (IL-17A/F heterodimer [3]): 0.99 nM
binding result (human IL-17D): no binding
binding result (human IL-17E): no binding
binding result (human IL-17B): no binding
binding result (human IL-17C): no binding
EC50 (human IL-17A [4]): 0.039 nM
EC50 (human IL-17F [5]): 0.042 nM
EC50 (human IL-17A [6]): 0.046 nM
EC50 (human IL-17F [7]): 0.047 nM
EC50 (cynomolgus IL-17A): 0.06 nM
EC50 (cynomolgus IL-17F): 0.18 nM
Kd (human IL-17A [8]): 0.29 nM
koff (human IL-17A [8]): 0.00059 s⁻¹
kon (human IL-17A [8]): 2e+06 M⁻¹ s⁻¹
IC50 (human IL-17A [9]): 0.72 nM
IC50 (human IL-17F [10]): 0.67 nM
IC50 (IL-17A/F heterodimer [11]): 0.45 nM
B1: anti-IL17A/F antibody hIgG VH1-1/VL5 (antibody, V domains shown)
VH: QFQLVQSGAEVKKPGASVKVSCKASGYTFTDYNLNWVRQAPGKGLEWMGVIHPDYGTTSYNQKFKDRVTMTVDTSTSTVYMELSSLRSEDTAVYYCVRYDYGDAMDYWGQGTLVTVSS
VL: DIVMTQSPLSLSVTPGQPASISCRSSQSLVHSNGNTYLHWYLQKPGQPPQLLIYKVSNRFSGVPDRFSGSGSGTDFTLKISRVEAEDVGVYYCSQSTHVPLTFGQGTKLEIKR
notes: also called VH1-1/VL5 mAb; hIgGc VH1-1/VL5

Kd (human IL-17A [8]): 0.84 nM
koff (human IL-17A [8]): 0.0018 s⁻¹
kon (human IL-17A [8]): 2.2e+06 M⁻¹ s⁻¹
B2: humanized anti-IL17A/F antibody VH1-1/VL2-1 (antibody, V domains shown)
VH: B1 VH
VL: DIVMTQTPLSSSVTLGQPASISCRSSQSLVHSNGNTYLHWLQQRPGQPPRLLIYKVSNRFSGVPDRFSGSGAGTDFTLKISRVEAEDVGVYYCSQSTHVPLTFGQGTKLEIK
notes: It was tested as a humanized IgG captured through its Fc by an anti-human Fc antibody
